Tested on: Escherichia coli TOP10
Assay: shrunken log2 fold change of peptide-encoding DNA abundance (4.5 h post-induction vs induction); higher = less antimicrobial activity (less host growth inhibition)
Settings: time post-induction: 4.5 h; library: site-saturation at positions 5, 18, 19, 20
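Note: peptides expressed intracellularly from a pBAD plasmid library in pooled LB shake-flask culture, induced with 0.3% L-arabinose, DNA abundance read by NGS, three biological replicates, DESeq2 with apeglm shrinkage.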

Row | Sequence | shrunken log2 fold change
1 | RRIRMRPPRLPRPRPRPHYNPRP | -0.467
2 | RRIRVRPPRLPRPRPRPQQLPRP | -0.0555
3 | RRIRERPPRLPRPRPRPPCKPRP | -0.208
4 | RRIRNRPPRLPRPRPRPVVRPRP | 0.12
5 | RRIRRRPPRLPRPRPRPDYRPRP | 0.0309
6 | RRIRTRPPRLPRPRPRPECAPRP | 0.459
7 | RRIRRRPPRLPRPRPRPNHDPRP | 0.196
8 | RRIRTRPPRLPRPRPRPDHSPRP | -0.0596
9 | RRIRHRPPRLPRPRPRPIWYPRP | -0.75
10 | RRIRYRPPRLPRPRPRPKQMPRP | 0.0213
11 | RRIRTRPPRLPRPRPRPHAGPRP | -0.0835
12 | RRIRGRPPRLPRPRPRPFYLPRP | -0.0695
13 | RRIRARPPRLPRPRPRPYGTPRP | -0.131
14 | RRIRNRPPRLPRPRPRPDAPPRP | 0.185
15 | RRIRSRPPRLPRPRPRPCPDPRP | -0.388
16 | RRIRPRPPRLPRPRPRPGRAPRP | 0.549
17 | RRIRDRPPRLPRPRPRPHDDPRP | 0.014
18 | RRIRWRPPRLPRPRPRPDDQPRP | -0.0297
19 | RRIRWRPPRLPRPRPRPTDKPRP | -0.0481
20 | RRIRRRPPRLPRPRPRPLGTPRP | 0.547
21 | RRIRKRPPRLPRPRPRPCYEPRP | -0.311
22 | RRIRQRPPRLPRPRPRPTSSPRP | 0.088
23 | RRIRQRPPRLPRPRPRPKVNPRP | -0.0444
24 | RRIRSRPPRLPRPRPRPSMTPRP | -0.356
25 | RRIRKRPPRLPRPRPRPKELPRP | 0.566

Row | Sequence | shrunken log2 fold change
26 | RRIRYRPPRLPRPRPRPFTDPRP | -0.583
27 | RRIRNRPPRLPRPRPRPHKDPRP | -0.737
28 | RRIRCRPPRLPRPRPRPAIRPRP | -0.0579
29 | RRIRVRPPRLPRPRPRPPHQPRP | 0.0363
30 | RRIRERPPRLPRPRPRPGFFPRP | -0.191
31 | RRIRVRPPRLPRPRPRPPRQPRP | 0.583
32 | RRIRMRPPRLPRPRPRPVDSPRP | 0.216
33 | RRIRTRPPRLPRPRPRPEYFPRP | -0.186
34 | RRIRHRPPRLPRPRPRPCDAPRP | -0.0305
35 | RRIRKRPPRLPRPRPRPMNKPRP | 0.0136
36 | RRIRVRPPRLPRPRPRPRSLPRP | -0.116
37 | RRIRDRPPRLPRPRPRPKMQPRP | 0.247
38 | RRIRIRPPRLPRPRPRPNCIPRP | -0.408
39 | RRIRNRPPRLPRPRPRPAHCPRP | -0.424
40 | RRIRRRPPRLPRPRPRPNTEPRP | 0.119
41 | RRIRHRPPRLPRPRPRPGDYPRP | -0.212
42 | RRIRARPPRLPRPRPRPKWNPRP | 0.286
43 | RRIRGRPPRLPRPRPRPCMDPRP | 0.714
44 | RRIRHRPPRLPRPRPRPCPKPRP | 0.03
45 | RRIRPRPPRLPRPRPRPIRSPRP | 0.00396
46 | RRIRGRPPRLPRPRPRPPVFPRP | 0.647
47 | RRIRGRPPRLPRPRPRPDIRPRP | 0.454
48 | RRIRIRPPRLPRPRPRPGSFPRP | -0.0206
49 | RRIRDRPPRLPRPRPRPQPMPRP | -0.0809
50 | RRIRNRPPRLPRPRPRPNPFPRP | -0.0489

Row | Sequence | shrunken log2 fold change
51 | RRIRLRPPRLPRPRPRPFMEPRP | -0.35
52 | RRIRQRPPRLPRPRPRPHLCPRP | 0.0292
53 | RRIRYRPPRLPRPRPRPQEFPRP | -0.00973
54 | RRIRCRPPRLPRPRPRPAAPPRP | 0.668
55 | RRIRVRPPRLPRPRPRPRVAPRP | 0.381
56 | RRIRERPPRLPRPRPRPEINPRP | -0.2
57 | RRIRSRPPRLPRPRPRPHQVPRP | -0.0813
58 | RRIRCRPPRLPRPRPRPHQYPRP | -0.05
59 | RRIRNRPPRLPRPRPRPAYSPRP | -0.189
60 | RRIRHRPPRLPRPRPRPVRTPRP | 0.314
61 | RRIRERPPRLPRPRPRPNTQPRP | -0.187
62 | RRIRDRPPRLPRPRPRPHCQPRP | -0.146
63 | RRIRQRPPRLPRPRPRPFKTPRP | -0.0381
64 | RRIRERPPRLPRPRPRPCPAPRP | -0.224
65 | RRIRMRPPRLPRPRPRPDSSPRP | 0.0874
66 | RRIRDRPPRLPRPRPRPSHWPRP | -0.178
67 | RRIRYRPPRLPRPRPRPDHSPRP | -0.889
68 | RRIRERPPRLPRPRPRPQYVPRP | -0.215
69 | RRIRRRPPRLPRPRPRPALNPRP | 0.248
70 | RRIRRRPPRLPRPRPRPKPFPRP | 0.655
71 | RRIRWRPPRLPRPRPRPFMDPRP | -0.41
72 | RRIRARPPRLPRPRPRPVAGPRP | 0.35
73 | RRIRTRPPRLPRPRPRPGYDPRP | -0.697
74 | RRIRARPPRLPRPRPRPWESPRP | 0.192
75 | RRIRARPPRLPRPRPRPRTEPRP | 0.391

Row | Sequence | shrunken log2 fold change
76 | RRIRWRPPRLPRPRPRPVNNPRP | 0.018
77 | RRIRIRPPRLPRPRPRPQLFPRP | 0.667
78 | RRIRTRPPRLPRPRPRPWHIPRP | -0.115
79 | RRIRVRPPRLPRPRPRPSLMPRP | -0.368
80 | RRIRCRPPRLPRPRPRPDWVPRP | 0.0222
81 | RRIRMRPPRLPRPRPRPAVCPRP | 0.103
82 | RRIRVRPPRLPRPRPRPFGVPRP | -0.179
83 | RRIRCRPPRLPRPRPRPIWIPRP | -0.291
84 | RRIRLRPPRLPRPRPRPAMMPRP | -0.221
85 | RRIRLRPPRLPRPRPRPLTVPRP | 0.127
86 | RRIRMRPPRLPRPRPRPPDHPRP | 0.456
87 | RRIRYRPPRLPRPRPRPGGNPRP | -0.0562
88 | RRIRMRPPRLPRPRPRPDGVPRP | 0.0632
89 | RRIRARPPRLPRPRPRPFGFPRP | 0.261
90 | RRIRERPPRLPRPRPRPYLEPRP | -0.271
91 | RRIRCRPPRLPRPRPRPSVKPRP | -0.765
92 | RRIRQRPPRLPRPRPRPYYEPRP | -0.172
93 | RRIRMRPPRLPRPRPRPPHHPRP | 0.527
94 | RRIRDRPPRLPRPRPRPEANPRP | 1.28
95 | RRIRRRPPRLPRPRPRPEIGPRP | 0.244
96 | RRIRERPPRLPRPRPRPFWIPRP | -0.165
97 | RRIRYRPPRLPRPRPRPRIGPRP | -0.471
98 | RRIRGRPPRLPRPRPRPEIWPRP | 1.34
99 | RRIRKRPPRLPRPRPRPIWCPRP | -0.0231
100 | RRIRNRPPRLPRPRPRPQMAPRP | -0.23

Row | Sequence | shrunken log2 fold change
101 | RRIRLRPPRLPRPRPRPNGLPRP | -0.0171
102 | RRIRRRPPRLPRPRPRPCQQPRP | -0.0197
103 | RRIRCRPPRLPRPRPRPVNAPRP | -0.0831
104 | RRIRHRPPRLPRPRPRPRAWPRP | 0.0709
105 | RRIRWRPPRLPRPRPRPFCPPRP | -0.318
106 | RRIRGRPPRLPRPRPRPFFEPRP | 0.428
107 | RRIRGRPPRLPRPRPRPDARPRP | 0.34
108 | RRIRGRPPRLPRPRPRPVDSPRP | 0.0597
109 | RRIRYRPPRLPRPRPRPVRWPRP | 0.164
110 | RRIRGRPPRLPRPRPRPQMSPRP | 0.395
111 | RRIRNRPPRLPRPRPRPHMNPRP | -0.572
112 | RRIRNRPPRLPRPRPRPESVPRP | -0.145
113 | RRIRDRPPRLPRPRPRPRIAPRP | 0.114
114 | RRIRHRPPRLPRPRPRPSTMPRP | -0.493
115 | RRIRCRPPRLPRPRPRPEVYPRP | -0.0302
116 | RRIRYRPPRLPRPRPRPGAHPRP | -0.818
117 | RRIRPRPPRLPRPRPRPLQNPRP | -0.179
118 | RRIRGRPPRLPRPRPRPEEAPRP | 2.32
119 | RRIRTRPPRLPRPRPRPVHEPRP | 0.247
120 | RRIRIRPPRLPRPRPRPYQLPRP | -0.699
121 | RRIRNRPPRLPRPRPRPGHTPRP | -0.175
122 | RRIRKRPPRLPRPRPRPRDQPRP | 0.000671
123 | RRIRWRPPRLPRPRPRPTRPPRP | 0.855
124 | RRIRNRPPRLPRPRPRPTGTPRP | 0.0526
125 | RRIRSRPPRLPRPRPRPGNFPRP | 0.00825
